One test deals with NMDA receptor. The experiment in a line: whole-cell recordings of NMDAR-mediated currents in cultured hippocampal neurons. The format is cell-based, rat.
The test system of the next test is hippocampal neurons. In words: Assay I: glutamate excitotoxicity in primary cultures of dissociated hippocampal neurons. Type of test: cell-based, rat. Particulars: 20 minute exposure to Glutamate (100 μM) and Glycine (10 μM); expression in neurons; n=5. Here is the method: (A) Survival of hippocampal neurons in culture exposed to Glutamate (100 μM) and Glycine (10 μM) for a 20 minute period. 14 div neuronal cultures were transfected with GFP, NR2B-BD or RasGRF1-BD 24 hours prior to analysis. The neuronal cultures were then incubated with glutamate for 20 minutes, washed with culture media and returned to the incubator for an additional 24 hours. The cells were then fixed with PFA and stained with a neuronal specific antibody, Map2. […] (B) Percentage of propidium iodide-resistant (surviving) neurons in organotypic hippocampal slices (P5+7div) expressing GFP, NR2B-BD or […] in control conditions and after 20 minutes exposure to NMDA (50 μM). The fluorescence of propidium iodide (PI) was measured 24 hours later. PI enters damaged cells and is a convenient tool to determine neuronal cell death. For PI staining, the slices were incubated in culture medium containing 0.1 mg/ml PI for 2 h. GFP, NR2B-BD and […] were expressed using the SindBis expression system. Mean±SEM. N=3.
Assay I: primary cultures of dissociated hippocampal neurons (FIG. 7(A)). This method may be used to analyze the mechanisms of glutamate-dependent excitotoxicity (see e.g., Medina, et al., Eur J Neurosci. (1999) 11(4): 1167-78). Briefly, neuronal cell death was induced by a 20 minute exposure to Glutamate (100 μM) and Glycine (10 μM). […]

B1: NR2B-BD: peptide of amino acids 886-1310 of the NR2B C-terminal domain that binds RasGRF1; used as NusA or EGFP fusion (protein)
chain: SPTATMNNTHSNILRLLRTAKNMANLSGVNGSPQSALDFIRRESSVYDISEHRRSFTHSDCKSYNNPPCEENLFSDYISEVERTFGNLQLKDSNVYQDHYHHHHRPHSIGSTSSIDGLYDCDNPPFTTQPRSISKKPLDIGLPSSKHSQLSDLYGKFSFKSDRYSGHDDLIRSDVSDISTHTVTYGNIEGNAAKRRKQQYKDSLKKRPASAKSRREFDEIELAYRRRPPRSPDHKRYFRDKEGLRDFYLDQFRTKENSPHWEHVDLTDIYKERSDDFKRDSVSGGGPCTNRSHLKHGTGEKHGVVGGVPAPWEKNLTNVDWEDRSGGNFCRSCPSKLHNYSSTVAGQNSGRQACIRCEACKKAGNLYDISKDNSLQELDQPAAPVAVTSNASSTKYPQSPTNSKAQKKNRNKLRRQHSYDTFVDL
modifications: left off: small tags and cut ends
notes: used as NusA or EGFP fusion
For the molecule B1, the “average amplitude of the whole-cell current induced by bath application of NMDA” value in the test with NMDA receptor (100 μM NMDA, neurons expressing BD fusion constructs) is “did not affect”. The “proportion of ifenprodil-sensitive (NR2B) current stimulated by NMDA bath application” value with NMDA receptor (cultured neurons, 3 μM ifenprodil) was “neither RasGRF1-BD nor NR2B-BD expression changed”. The “mean amplitude and kinetics of the spontaneous NMDAR-mediated excitatory postsynaptic currents” value in the test on NMDA receptor (neurons expressing BD fusion constructs) is “did not affect”. In addition, in the test with hippocampal neurons, the “decrease of neuronal cell death induced by glutamate and glycine” value came out at 47±2%.

These data come from US7425614B2, “Neuroprotective therapeutics preventing ERK/MAPK activation through the NMDA receptor” (Children's Medical Center Corporation, priority 2003, dated 2008).
